Test results taken from the Immune Epitope Database (IEDB).

Experiments:
HLA-A*03:01 [1] = experiment: IEDB peptide-MHC binding, purified MHC/direct/fluorescence; filed as Kd, often an IC50 or EC50 that approximates it; ≥ and ≤ were set here for values at or beyond the usual limits of such assays
HLA-A*02:12 = experiment: as above; conditions: source organism: Bacillus cereus 03BB108
HLA-B*18:01 = experiment: IEDB peptide-MHC binding, purified MHC/competitive/radioactivity; filed as Kd, often an IC50 or EC50 that approximates it; ≥ and ≤ were set here for values at or beyond the usual limits of such assays
HLA-B*40:01 = experiment: as above
HLA-B*44:02 = experiment: as above
HLA-B*45:01 = experiment: as above
HLA-B*44:03 = experiment: as above
HLA-B*40:02 = experiment: as above
HLA-A*11:01 [2] = experiment: IEDB peptide-MHC binding, purified MHC/direct/fluorescence; filed as Kd, often an IC50 or EC50 that approximates it; ≥ and ≤ were set here for values at or beyond the usual limits of such assays
HLA-A*31:01 [3] = experiment: IEDB peptide-MHC binding, purified MHC/competitive/fluorescence; filed as Kd, often an IC50 or EC50 that approximates it; ≥ and ≤ were set here for values at or beyond the usual limits of such assays
HLA-B*15:03 = experiment: IEDB peptide-MHC binding, purified MHC/competitive/radioactivity; filed as Kd, often an IC50 or EC50 that approximates it; ≥ and ≤ were set here for values at or beyond the usual limits of such assays; conditions: source organism: Vaccinia virus WR
HLA-A*68:01 = experiment: as above
HLA-B*08:01 = experiment: as above; conditions: source organism: Vaccinia virus WR
HLA-A*32:01 = experiment: as above; conditions: source organism: Vaccinia virus WR
HLA-A*30:01 = experiment: as above; conditions: source organism: Vaccinia virus WR
HLA-B*15:01 = experiment: as above; conditions: source organism: Vaccinia virus WR
HLA-B*51:01 = experiment: as above
HLA-B*07:02 = experiment: as above
HLA-B*35:01 = experiment: as above
HLA-B*53:01 = experiment: as above
HLA-B*54:01 = experiment: as above
HLA-A*02:01 = experiment: IEDB peptide-MHC binding, purified MHC/competitive/fluorescence; filed as Kd, often an IC50 or EC50 that approximates it; ≥ and ≤ were set here for values at or beyond the usual limits of such assays; conditions: source organism: Vaccinia virus L-IPV
HLA-A*03:01 [4] = experiment: IEDB peptide-MHC binding, purified MHC/competitive/radioactivity; filed as Kd, often an IC50 or EC50 that approximates it; ≥ and ≤ were set here for values at or beyond the usual limits of such assays; conditions: source organism: Vaccinia virus Copenhagen
HLA-A*02:06 = experiment: as above; conditions: source organism: Vaccinia virus Copenhagen
HLA-A*33:01 = experiment: as above; conditions: source organism: Vaccinia virus Copenhagen
HLA-A*11:01 [5] = experiment: as above; conditions: source organism: Vaccinia virus Copenhagen
HLA-A*02:03 = experiment: as above; conditions: source organism: Vaccinia virus Copenhagen
HLA-A*02:02 = experiment: as above; conditions: source organism: Vaccinia virus Copenhagen
HLA-A*31:01 [6] = experiment: as above; conditions: source organism: Vaccinia virus Copenhagen
HLA-A*11:01 [7] = experiment: IEDB peptide-MHC binding, purified MHC/competitive/fluorescence; ≥ and ≤ were set here for values at or beyond the usual limits of such assays; conditions: source organism: West Nile virus
[8] = source organism: Mammarenavirus lassaense
[9] = source organism: SARS coronavirus Tor2
[10] = source organism: Yellow fever virus 1899/81
[11] = source organism: Vaccinia virus Copenhagen
[12] = source organism: Vaccinia virus WR
[13] = source organism: West Nile virus

GMFDWESMK
Kd (HLA-A*03:01 [1]; source organism: Bacillus mycoides): 208 nM | Kd (HLA-A*02:12): 744 nM

PDYKRPGVS
Kd (HLA-B*18:01; [8]): ≥ 77500 nM | Kd (HLA-B*40:01; [8]): ≥ 33800 nM | Kd (HLA-B*44:02; [8]): ≥ 77900 nM | Kd (HLA-B*45:01; [8]): ≥ 77700 nM | Kd (HLA-B*44:03; [8]): ≥ 54300 nM | Kd (HLA-B*40:02; [8]): 17600 nM

RELYLNSSNV
Kd (HLA-B*18:01; [9]): ≥ 70500 nM | Kd (HLA-B*40:01; [9]): 184 nM | Kd (HLA-B*44:02; [9]): 2160 nM | Kd (HLA-B*45:01; [9]): 95.5 nM | Kd (HLA-B*44:03; [9]): 1070 nM | Kd (HLA-B*40:02; [9]): 19.2 nM

VLFMVAWGK
Kd (HLA-A*03:01 [1]; source organism: Amur virus): 2260 nM | Kd (HLA-A*11:01 [2]; source organism: Amur virus): 76 nM | Kd (HLA-A*31:01 [3]; source organism: Hantaan virus 76-118): 161 nM

YQHFVARVF
Kd (HLA-B*15:03): 0.399 nM

AVSMANIFR
Kd (HLA-A*11:01 [2]; source organism: Dengue virus 1 Singapore/S275/1990): 8.9 nM | Kd (HLA-A*31:01 [3]; source organism: dengue virus type 1): 1.37 nM | Kd (HLA-A*68:01; source organism: Dengue virus 2 Jamaica/1409/1983): 55.4 nM

NMGVAMNLF
Kd (HLA-B*15:03): 998 nM

GTHPFSRIR
Kd (HLA-A*11:01 [2]; [10]): 326 nM | Kd (HLA-A*31:01 [3]; [10]): 6 nM

RKNHIYNSF
Kd (HLA-B*15:03): 0.132 nM

ELRDYFEQI
Kd (HLA-B*08:01): 12.5 nM | Kd (HLA-A*32:01): ≥ 77800 nM | Kd (HLA-B*15:03): 80.2 nM | Kd (HLA-A*30:01): ≥ 38000 nM | Kd (HLA-B*15:01): 2190 nM

MKITRPRHF
Kd (HLA-B*15:03): 1.04 nM

KPTTFMLKY
Kd (HLA-B*51:01; [9]): 13000 nM | Kd (HLA-B*07:02; [9]): 11400 nM | Kd (HLA-B*35:01; [9]): 41.3 nM | Kd (HLA-B*53:01; [9]): 24.7 nM | Kd (HLA-B*54:01; [9]): 5220 nM

IMFAKTLDF
Kd (HLA-A*32:01): 6.82 nM | Kd (HLA-B*15:03): 0.311 nM

NLFDIPLLTV
Kd (HLA-A*02:01): ≤ 0.1 nM | Kd (HLA-A*03:01 [4]): ≥ 48000 nM | Kd (HLA-A*02:06): 1.55 nM | Kd (HLA-A*33:01): 11800 nM | Kd (HLA-A*68:01; [11]): ≥ 21900 nM | Kd (HLA-A*11:01 [5]): ≥ 69800 nM | Kd (HLA-B*51:01; [11]): ≥ 69600 nM | Kd (HLA-A*02:03): 0.253 nM | Kd (HLA-B*07:02; [11]): 17100 nM | Kd (HLA-B*35:01; [11]): ≥ 69900 nM | Kd (HLA-A*02:02): 0.0997 nM | Kd (HLA-B*53:01; [11]): ≥ 69900 nM | Kd (HLA-B*54:01; [11]): 18800 nM | Kd (HLA-A*31:01 [6]): ≥ 22300 nM

SQRFIFNII
Kd (HLA-B*08:01): 653 nM | Kd (HLA-A*32:01): 1870 nM | Kd (HLA-B*15:03): 299 nM

TPKYKFVRI
Kd (HLA-B*51:01; [9]): 16100 nM | Kd (HLA-B*07:02; [9]): ≥ 10000 nM | Kd (HLA-B*35:01; [9]): ≥ 77400 nM | Kd (HLA-B*53:01; [9]): 16000 nM | Kd (HLA-B*54:01; [9]): ≥ 46200 nM

MPTDMLKLF
Kd (HLA-B*51:01; [12]): 99.2 nM | Kd (HLA-B*07:02; [12]): 17.8 nM | Kd (HLA-B*35:01; [12]): 0.163 nM | Kd (HLA-B*53:01; [12]): 0.141 nM | Kd (HLA-B*54:01; [12]): 28.6 nM

IPIGMQFDKV
Kd (HLA-B*51:01; [12]): 394 nM | Kd (HLA-B*07:02; [12]): 4910 nM | Kd (HLA-B*35:01; [12]): 5280 nM | Kd (HLA-B*53:01; [12]): 590 nM | Kd (HLA-B*54:01; [12]): 40.4 nM

KSYETEYPK
Kd (HLA-A*03:01 [1]; [13]): 728 nM | Kd (HLA-A*11:01 [2]; [13]): 7.7 nM | Kd (HLA-A*31:01 [3]; [13]): 126 nM | IC50 (HLA-A*11:01 [7]): 7880 nM
